Patent US20170015742A1 (published 2017)

Experiments:
Human PDGF-BB = target: T1, Human PDGF-BB (human, UniProt P01127 82-190); assay: SPR (Biacore), antibody captured via anti-human Fc, antigen in solution
T1 construct: Recombinant human PDGF-BB, a homodimer of two B chains; also called hPDGF-BB; huPDGF-BB
Protocol: For example, approximately 9000 RU of goat anti-human Fc specific polyclonal antibody (Thermo Fisher Scientific Inc., Rockford, Ill.) diluted in 10 mM sodium acetate (pH 4.5) is directly immobilized across a CM5 research grade biosensor chip using a standard amine coupling kit according to manufacturer's instructions and procedures at 25 μg/ml. Unreacted moieties on the biosensor surface were blocked with ethanolamine. For kinetic analysis, rate equations derived from the 1:1 Langmuir binding model were fitted simultaneously to multiple antigen injections (using global fit analysis) with the use of Scrubber 2 (BioLogic Software), Biacore Biaevaluation 4.0.1 software or Biacore T100 Evaluation software. Purified antibodies or DVD-Ig molecules were diluted in running buffer for capture across goat anti-human Fc reaction surfaces. Antibodies or DVD-Ig molecules to be captured as a ligand (1 μg/ml) were injected over reaction matrices at a flow rate of 10 μl/minute. During the assay, all measurements were referenced against the capture surface alone (i.e., with no captured antibody or DVD-Ig molecule). […] The equilibrium dissociation constant KD (M) of the reaction between antibodies and the target antigen was then calculated from the kinetic rate constants by the following formula: KD=Koff/Kₒₙ. Binding was recorded as a function of time and kinetic rate constants were calculated.

[1] = target: recombinant human PDGF-BB (human, UniProt P01127 82-190); assay: cell-based or functional assay
Sequence of recombinant human PDGF-BB (P01127 82-190 limits assumed): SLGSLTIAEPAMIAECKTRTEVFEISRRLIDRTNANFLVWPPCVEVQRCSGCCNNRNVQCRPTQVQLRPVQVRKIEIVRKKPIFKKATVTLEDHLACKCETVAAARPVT

T1 sequence (P01127 82-190 limits assumed): as above

| Kd (Human PDGF-BB) | kon (Human PDGF-BB) | NIH-3T3 hPDGF-BB Potency IC50 [1] | Binder |
| --- | --- | --- | --- |
|  |  | > 5 nM | 4G8.3-GS-9E8.4E DVD-Ig (PR-1575832) (bispecific antibody, human IgG1, kappa, L234A L235A) heavy: EVQLVQSGSELKKPGASVKVSCKASGYTFTNYGMYWVRQAPGQGLEWMGWINTETGKPTYADDFKGRFVFSLDTSVSTAYLQISSLKAEDTAVYYCARTNYYYRSYIFYFDYWGQGTMVTVSSGGGGSGGGGSEVTLRESGPALVKPTQTLTLTCTFSGFSLSTYGMGVGWIRQPPGKALEWLANIWWDDDKYYNPSLKNRLTISKDTSKNQVVLTMTNMDPVDTATYYCARIESIGTTYSFDYWGQGTMVTVSSASTKGPSVFPLAPSSKSTSGGTAALGCLVKDYFPEPVTVSWNSGALTSGVHTFPAVLQSSGLYSLSSVVTVPSSSLGTQTYICNVNHKPSNTKVDKKVEPKSCDKTHTCPPCPAPEAAGGPSVFLFPPKPKDTLMISRTPEVTCVVVDVSHEDPEVKFNWYVDGVEVHNAKTKPREEQYNSTYRVVSVLTVLHQDWLNGKEYKCKVSNKALPAPIEKTISKAKGQPREPQVYTLPPSREEMTKNQVSLTCLVKGFYPSDIAVEWESNGQPENNYKTTPPVLDSDGSFFLYSKLTVDKSRWQQGNVFSCSVMHEALHNAYTQKSLSLSPGK light: DTVLTQSPATLSLSPGERATLSCRASESVSTHMHWYQQKPGQAPRLLIYGASNLESGVPARFSGSGSGTDFTLTISSLEPEDFAVYFCQQSWNDPFTFGQGTKLEIKRGGSGGGGSGEFVLTQSPGTLSLSPGERATLSCERSSGDIGESYVSWYQQKPGQAPRLVIYADDQRPSGIPDRFSGSGSGTDFTLTISRLEPEDFAVYYCQSYDINIDIVFGGGTKVEIKRTVAAPSVFIFPPSDEQLKSGTASVVCLLNNFYPREAKVQWKVDNALQSGNSQESVTEQDSKDSTYSLSSTLTLSKADYEKHKVYACEVTHQGLSSPVTKSFNRGEC |
| ≤ 0.17 nM | ≥ 1e+07 M⁻¹ s⁻¹ |  | hBDI-5H1.5 (antibody, V domains shown, Humanized IgG) VH: EVTLKESGPALVKPTQTLTLTCTFSGFSLSTFGMGVGWIRQPPGKALEWLANIWWDDDKYYNPSLKNRLTISKDTSKNQAVLTITNMDPVDTATYYCARISTGISSYYVMDAWGQGTTVTVSS VL: NFMLTQPHSVSESPGKTVTISCERSSGDIGDTYVSWYQQRPGSSPTTVIYGNDQRPSGVPDRFSGSIDSSSNSASLTISGLKTEDEADYYCQSYDSDIDIVFGGGTKLTVL |
| ≤ 0.31 nM | ≥ 1e+07 M⁻¹ s⁻¹ |  | hBDI-5H1.9 (antibody, V domains shown, Humanized IgG) VH: EVTLRESGPALVKPTQTLTLTCTFSGFSLSTFGMGVGWIRQPPGKALEWLANIWWDDDKYYNPSLKNRLTISKDTSKNQAVLTITNMDPVDTATYYCARISTGISSYYVMDAWGQGTTVTVSS VL: DFVLTQSPDSLAVSLGERATINCERSSGDIGDTYVSWYQQKPGQPPKNVIYGNDQRPSGVPDRFSGSGSGNSATLTISSLQAEDVAVYFCQSYDSDIDIVFGGGTKVEIK |
| ≤ 1.4 nM | ≥ 1e+07 M⁻¹ s⁻¹ |  | hBDI-5H1.4 (antibody, V domains shown, Humanized IgG) VH: EVTLRESGPALVKPTQTLTLTCTFSGFSLSTFGMGVGWIRQPPGKALEWLANIWWDDDKYYNPSLKNRLTISKDTSKNQVVLTMTNMDPVDTATYYCARISTGISSYYVMDAWGQGTTVTVSS VL: EFVLTQSPGTLSLSPGERATLSCERSSGDIGDTYVSWYQQKPGQAPRLVIYGNDQRPSGIPDRFSGSGSGTDFTLTISRLEPEDFAVYYCQSYDSDIDIVFGGGTKVEIK |

Second part, the binder before the results:

| Binder | Kd (Human PDGF-BB) | kon (Human PDGF-BB) | NIH-3T3 hPDGF-BB Potency IC50 [1] |
| --- | --- | --- | --- |
| hBDI-5H1.11 (antibody, V domains shown, Humanized IgG) VH: EVQLVESGGGLVQPGGSLRLSCAFSGFSLSTFGMGVGWIRQAPGKGLEWLANIWWDDDKYYNPSLKNRLTISKDTSKNQAYLQINSLRAEDTAVYYCARISTGISSYYVMDAWGQGTLVTVSS VL: DFVLTQSPDSLAVSLGERATINCERSSGDIGDTYVSWYQQKPGQPPKNVIYGNDQRPSGVPDRFSGSGSGNSATLTISSLQAEDVAVYFCQSYDSDIDIVFGGGTKVEIK | ≤ 0.37 nM | ≥ 1e+07 M⁻¹ s⁻¹ |  |
| hBDI-5H1.12 (antibody, V domains shown, Humanized IgG) VH: EVQLVESGGGLVQPGGSLRLSCAFSGFSLSTFGMGVGWIRQAPGKGLEWLANIWWDDDKYYNPSLKNRLTISKDTSKNQAYLQINSLRAEDTAVYYCARISTGISSYYVMDAWGQGTLVTVSS VL: DFQLTQSPSSLSASVGDRVTITCERSSGDIGDTYVSWYQQKPGKAPKNVIYGNDQRPSGVPSRFSGSGSGNSATLTISSLQPEDFATYFCQSYDSDIDIVFGQGTKVEIK | ≤ 0.23 nM | ≥ 1e+07 M⁻¹ s⁻¹ |  |
| 9E8.4-SL-4G8.3 DVD-Ig (PR-1563998) (bispecific antibody, human IgG1, kappa, L234A L235A) heavy: not shown light: EFVLTQSPGTLSLSPGERATLSCERSSGDIGDSYVSWYQQKPGQAPRLVIYADDQRPSGIPDRFSGSGSGTDFTLTISRLEPEDFAVYYCQSYDINIDIVFGGGTKVEIKGTVAAPSVFIFPPDTVLTQSPATLSLSPGERATLSCRASESVSTHMHWYQQKPGQAPRLLIYGASNLESGVPARFSGSGSGTDFTLTISSLEPEDFAVYFCQQSWNDPFTFGQGTKLEIKRTVAAPSVFIFPPSDEQLKSGTASVVCLLNNFYPREAKVQWKVDNALQSGNSQESVTEQDSKDSTYSLSSTLTLSKADYEKHKVYACEVTHQGLSSPVTKSFNRGEC |  |  | 0.091 nM |
| 4G8.3-SS-9E8.4 DVD-Ig (PR-1564011) (bispecific antibody, human IgG1, kappa, L234A L235A) heavy: not shown light: DTVLTQSPATLSLSPGERATLSCRASESVSTHMHWYQQKPGQAPRLLIYGASNLESGVPARFSGSGSGTDFTLTISSLEPEDFAVYFCQQSWNDPFTFGQGTKLEIKRTVAAPEFVLTQSPGTLSLSPGERATLSCERSSGDIGDSYVSWYQQKPGQAPRLVIYADDQRPSGIPDRFSGSGSGTDFTLTISRLEPEDFAVYYCQSYDINIDIVFGGGTKVEIKGTVAAPSVFIFPPSDEQLKSGTASVVCLLNNFYPREAKVQWKVDNALQSGNSQESVTEQDSKDSTYSLSSTLTLSKADYEKHKVYACEVTHQGLSSPVTKSFNRGEC |  |  | 5.51 nM |
| 9E8.4-SS-4G8.3 DVD-Ig (PR-1563990) (bispecific antibody, human IgG1, kappa, L234A L235A) heavy: not shown light: EFVLTQSPGTLSLSPGERATLSCERSSGDIGDSYVSWYQQKPGQAPRLVIYADDQRPSGIPDRFSGSGSGTDFTLTISRLEPEDFAVYYCQSYDINIDIVFGGGTKVEIKGTVAAPDTVLTQSPATLSLSPGERATLSCRASESVSTHMHWYQQKPGQAPRLLIYGASNLESGVPARFSGSGSGTDFTLTISSLEPEDFAVYFCQQSWNDPFTFGQGTKLEIKRTVAAPSVFIFPPSDEQLKSGTASVVCLLNNFYPREAKVQWKVDNALQSGNSQESVTEQDSKDSTYSLSSTLTLSKADYEKHKVYACEVTHQGLSSPVTKSFNRGEC |  |  | 0.094 nM |
| 9E8.4-LS-4G8.3 DVD-Ig (PR-1564009) (bispecific antibody, human IgG1, kappa, L234A L235A) heavy: not shown light: EFVLTQSPGTLSLSPGERATLSCERSSGDIGDSYVSWYQQKPGQAPRLVIYADDQRPSGIPDRFSGSGSGTDFTLTISRLEPEDFAVYYCQSYDINIDIVFGGGTKVEIKGTVAAPDTVLTQSPATLSLSPGERATLSCRASESVSTHMHWYQQKPGQAPRLLIYGASNLESGVPARFSGSGSGTDFTLTISSLEPEDFAVYFCQQSWNDPFTFGQGTKLEIKRTVAAPSVFIFPPSDEQLKSGTASVVCLLNNFYPREAKVQWKVDNALQSGNSQESVTEQDSKDSTYSLSSTLTLSKADYEKHKVYACEVTHQGLSSPVTKSFNRGEC |  |  | 0.104 nM |
| hBDI-5H1.3 (antibody, V domains shown, Humanized IgG) VH: EVTLRESGPALVKPTQTLTLTCTFSGFSLSTFGMGVGWIRQPPGKALEWLANIWWDDDKYYNPSLKNRLTISKDTSKNQVVLTMTNMDPVDTATYYCARISTGISSYYVMDAWGQGTTVTVSS VL: EIVLTQSPGTLSLSPGERATLSCERSSGDIGDTYVSWYQQKPGQAPRLLIYGNDQRPSGIPDRFSGSGSGTDFTLTISRLEPEDFAVYYCQSYDSDIDIVFGGGTKVEIK | ≤ 0.45 nM | ≥ 1e+07 M⁻¹ s⁻¹ |  |
| hBDI-5H1.10 (antibody, V domains shown, Humanized IgG) VH: EVTLRESGPALVKPTQTLTLTCTFSGFSLSTFGMGVGWIRQPPGKALEWLANIWWDDDKYYNPSLKNRLTISKDTSKNQAVLTITNMDPVDTATYYCARISTGISSYYVMDAWGQGTTVTVSS VL: DFQLTQSPSSLSASVGDRVTITCERSSGDIGDTYVSWYQQKPGKAPKNVIYGNDQRPSGVPSRFSGSGSGNSATLTISSLQPEDFATYFCQSYDSDIDIVFGQGTKVEIK | ≤ 0.23 nM | ≥ 1e+07 M⁻¹ s⁻¹ |  |
| hBDI-5H1.6 (antibody, V domains shown, Humanized IgG) VH: EVTLKESGPALVKPTQTLTLTCTFSGFSLSTFGMGVGWIRQPPGKALEWLANIWWDDDKYYNPSLKNRLTISKDTSKNQAVLTITNMDPVDTATYYCARISTGISSYYVMDAWGQGTTVTVSS VL: NFMLTQPHSVSESPGKTVTISCERSSGDIGDTYVSWYQQRPGSPPTNVIYGNDQRPSGVPDRFSGSIDSSSNSASLTISGLKTEDEADYFCQSYDSDIDIVFGGGTKLTVL | ≤ 0.082 nM | ≥ 1e+07 M⁻¹ s⁻¹ |  |
